The text below walks through data of a protein production outcome set (Wang et al. 2014).

This series in a line: label from the status in PepcDB records.
Consider “SDDINQKVAEQLAQKAQSSSLGYDIVESLTVEVGPRLAGSEQDKVAVDWAIAKLQSLGFDRVYKEPVTVPVWRRGIAKASILSPFPQPLVVTALGGSIATPAQGLSATIVRFDTLQDLQNAEAGSLNDKIAFIDAKTERHRDGKGYGQTASGRSRGAVAAAEKGAVGIIIRSIGTDHDRMAHTGMMRYEEGVTAIPAAAISNPDADLINAMLKRDKEVVISLELGSERRGETTSYNVIAEVKGSTKADEIVLIGAHLDSWDEGTGAIDDGAGVAIVTAAAKHILDLPQKPERTIRVVLYAAEELGLLGGKTYAKEHEAELEKHYIAAESDFGAGPIYQIDWRVADTAHSPVINAMKVAEPLGVAAGNNKASGGPDVSMLPALGVPVASLRQDGSDYFDYHHTPNDTLDKINPEALAQNVAVYAQFAWVMANSKVELRPLPPKE”, for which the protein production entry is “not failed”. Regarding “SDMVAQALELSRKPHVVIATPGRLADHLRSSNTFSIKKIRFLVMDEADRLLEQGCTDFTVDLEAILAAVPARRQTLLFSATLTDTLRELQGLATNQPFFWEAQAPVSTVEQLDQRYLLVPEKVKDAYLVHLIQRFQDEHEDWSIIIFTNTCKTCQILCMMLRKFSFPTVALHSMMKQKERFAALAKFKSSIYRILIATDVASRGADQPPLPPGAWTSLRYRWSSTTTPPGSPRSTSTESAGRPVQGGRVRPSRW”, the protein production result is “not failed”. The entry for “SDPDADRVGIACKNDKGEWVLINGNQTCLMYLYYIITQYNKLGKMTGNEFCVKTIVTTELIKKIADKNHIEMLDCYTGFKWIAREIRLREGKKKYIGGGEESYGFLAEDFVRDKDAVSACCLIAEVAAWAKDNGKTLYQLLMDIYVEYGFSKE” is “failed”; for “SDSPEQESADDALKRIVDGFQHFRREVFPEQQALFKKLANSQRPRAMFITCADSRIVPELITQSSPGDLFVTRNVGNVVPPYGQMNGGVSTAIEYAVLALGVHHIIVCGHSDCGAMRAVLDPQTLERMPTVKAWLRHAEVARTVVADNCDCGASHDTLGVLTEENVVAQLDHLRTHPSVASRLASGQLFIHGWVYDIESAQIRAYDAKQGRFLPLDGEHPVPMATPAPRYLSS” it is “failed”; for “SEITVSEFLLDFLNKYSENISLATYNNYVSICKNYINPSIGKYKIQDLHPVHIQNYIDKLSYKLNPQSIKIHINILKLAIKRAYRLKLIKENVMDSIKAP” it is “failed”.

Turning to “SEKLAASTEPQGPRPVLGRESVQVPDDQDFRSFRSECEAEVGWNLTYSRAGVSVWVQAVEMDRTLHKIKCRMECCDVPAETLYDVLHDIEYRKKWDSNVIETFDIARLTVNADVGYYSWRCPKPLKNRDVITLRSWLPMGADYIIMNYSVKHPKYPPRKDLVRAVSIQTGYLIQSTGPKSCVITYLAQVDPKGSLPKWVVNKSSQFLAPKAMKKMYKACLKYPEWKQKHLPHFKPWLHPEQSPLPSLALSELSVQHADSLENIDESAVAESREERMGGAGGEGSDDDTSLT”, the protein production result is listed as “not failed”. As for “SELKPTAPPIFTGRPFVVAWDVPTQDCGPRLKVPLDLNAFDVQASPNEGFVNQNITIFYRDRLGLYPRFDSAGRSVHGGVPQNVSLWAHRKMLQKRVEHYIRTQESAGLAVIDWEDWRPVWVRNWQDKDVYRRLSRQLVASRHPDWPPDRIVKQAQYEFEFAAQQFMLETLRYVKAVRPRHLWGFYLFPDCYNHDYVQNWESYTGRCPDVEVARNDQLAWLWAESTALFPSVYLDETLASSRHGRNFVSFRVQEALRVARTHHANHALPVYVFTRPTYSRRLTGLSEMDLISTIGESAALGAAGVILWGDAGYTTSTETCQYLKDYLTRLLVPYVVNVSWATQYCSRAQCHGHGRCVRRNPSASTFLHLSTNSFRLVPGHAPGEPQLRPVGELSWADIDHLQTHFRCQCYLGWSGEQCQWDHRQAAGGASEAWAGSHLTSLLALAALAFTWTL”, the protein production result is listed as “failed”. With “SERYAAALEEVADGARQQERHYQLLSALQSLVKELPSSFQQRLSYTTLSDLALALLDGTVFEIVQGLLEIQHLTEKSLYNQRLRLQNEHRVLRQALRQKHQEAQQACRPHNLPVVQAAQQRELEAVEHRIREEQRAMDQKIILELDRKVADQQSTLEKAGVAGFYVTTNPQELMLQMNLLELIRKLQQRGCRAGNAALGLGGPWQSPAAQCDQKGSPVPP”, the protein production result was “not failed”. Consider “SEYKFAKFAATYFQGTTTHSYTRRPLKQPLLYHDDEGDQLAALAVWITILRFMGDLPEPKYHTAMSDGSEKIPVMTKIYETLGKKTYKRELQALQGEGEAQLPEGQKKSSVR”, for which the protein production result is listed as “failed”. “SFRVVLDPGHGGIDGGARGVTGILEKDVTLAFARALRDELQKGSHTIVALTRDSDIFLRLSERVKKAQEFDADLFISIHADTIDVHSLRGATVYTISDEASDAIAKSLAESENKVDLLDGLPKEESLELTDILLDLTRRETHAFSINFANNVVSNLSKSHINLINNPHRYADFQVLKAPDVPSVLIEIGYLSNKEDEKLLNNPQWRKQMAASIAYSIRQFAEYRQKIMQPL”: the protein production entry is recorded as “not failed”. As for “SGLAQPQIAAVVAAPKKPEPAKAPKAPKSKSEKENKPVVAARKANAPVAKNASPVKGGKGPAGGDVGRPKNPTANGANNQGRFNNNQRYGNKESNGEFGNELPQRQFNNRDNRGPPRVRTGEKFG”, the protein production result is “failed”.

For the sequence “SIAILVIMHGESTASSMVNVANTLLDCNHAVAINMGLEDRVQDILVQAVEIANKIDKGKGILILTDMGSILTFAKVIRDATGKEVKAIDMVSTPIVIEATRKALTPEMTLEKLYFNIIESIKKHYGDMEVTYAEK”, the protein production result is recorded as “failed”.

On to “SIAILVIMHGESTASSMVNVANTLLDCNHAVAINMGLEDRVQDILVQAVEIANKIDKGKGILILTDMGSILTFAKVIRDATGKEVKAIDMVSTPIVIEATRKALTPEMTLEKLYFNIIESIKKHYGDMEVTYAEKDNGGRY”, for which the protein production entry was “not failed”. With “SIDSKLQTLGEQLMQGKRGAIVMIEPETGEVLCLVSSPSYDPSLLAGKDRGKNHLEMEHDRNKPLYARAIQATYPPGSTFKPAQGAIFLQEGVIRPTDAFSCYHGFPPLNNRPACHSHGSPLSLVPALATSCNAFFCWGLRAMLDNRRFYPSVQEAFEHWKNRIVGLGFGYRLGLDLPGERRGYIPNSKVYDKAYKGRWNSSTIISISIGQGEILATPLQIANLGVIIANRGRYRRPHVVKAIQGIPLDTAYTNWQNSGISPANMEYIVEGMARAVTGGTCHAANFAPGEIEVCGKTGTAENPHGKDHSAFLGFAPRNNPKVVVSVYVENGGFGAVYGVPIGRVMMEYYLREGKLSPEGEAVATKMSNTAIHYSNVF”, the protein production result is “failed”. For “SISTHESQKLREYYRLLNLDEGCSVDDVRESFHKLARQYHPDSGSSDADSATFIKIEEAYRNVLSHAIKRMHAGQDKAEDAAEDEEEGKFKYNTPQHRHYLSFEGVGFGTPSQREKQYRQFRADRATEQVMEYQRQKLQREFFANSITVKDVRQSKQQKITQAIERLVEDLIQESMAKGDFDNLSGKGKPLKKFSGCSYIDPMTHNLNRILIDNGYQPEWILMQKEIKDTIEQLREALLMSRKKLGNPLSPTEQKQWAQVCEQFQEKIRKLNKRINDFNLIVPILTRQKVHFDAQKEIIRVQEMYGAFVEANEVTEENQTDVSQGEESKTPRVKAGFLNWLNLWKSIKI”, the protein production entry is listed as “failed”. Regarding “SKIYDNKNQLIADLGSERRVNAQANDIPTDLVKAIVSIEDHRFFDHRGIDTIRILGAFLRNLQSNSLQGGSTLTQQLIKLTYFSTSTSDQTISRKAQEAWLAIQLEQKATKQEILTYYINKVYMSNGNYGMQTAAQNYYGKDLNNLSLPQLALLAGMPQAPNQYDPYSHP”, the protein production entry is “failed”. Regarding “SKKPYIVTIACTKGGSAKSTNAANIGAFCADHGLRTLLIDTDTQPTLSSYYSLAKTAPGGIYEFLLQRDVEPSHIVSQTSIKNLDLIQSNDPSNNVSHMLRNAPDGSIRFSHLIKSINNYDVIVIDTRGTRDITVDMSVLAADILFCPILPQILSAKEFIRGTIGMYQDLQTFESFGFKLPPLKAIANGVDNTNDVKFVMQKLHTLFANTFDES”, the protein production entry was “failed”. With “SKLNERSVAHYALSDSPADHMGFLRTWGGPGTPPTPSGTGRRCWFVLKGNLLFSFESREGRAPLSLVVLEGCTVELAEAPVPEEFAFAICFDAPGVRPHLLAAEGPAAQEAWVKVLSRASFGYMRLVVRELESQLQDARQSLALQRRSSWKSVASRCKPQAPNHRAAGLENGHCLSKDSSPVGLVEEAGSRSAGWGLAEWELQGPASLLLGKGQSPVSPETSCFSTLHDWYGQEIVELRQCWQKRAQGSHSKCEEQDRP”, the protein production result was “not failed”. With “SKYQLGMLHFSTQYDLLHNHLTVRVIEARDLPPPISHDGSRQDMAHSNPYVKICLLPDQKNSKQTGVKRKTQKPVFEERYTFEIPFLEAQRRTLLLTVVDFDKFSRHCVIGKVSVPLCEVDLVKGGHWWKALIP”, the protein production result is listed as “not failed”.

For “SLANIREIAKRAGISIATVSRHLNNTGYVSEDAREKIQKVVDELNYTPNALARAMFTKNSKTIGLMVPNISNPFFNQMASVIEEYAKNKGYTLFLCNTDDDKEKEKTYLEVLQSHRVAGIIASRSQCEDEYANIDIPVVAFENHILDNIITISSDNYNGGRMAFDHLYEKGCRKILHIKGPEVFEATELRYKGFLDGARAKDLEIDFIEFQHDFQVKMLEEDINSMKDIVNYDGIFVFNDIAAATVMRALKKRGVSIPQEVQIIGFDNSFIGELLYPSLTTINQPIEALAYTIIELLIKIINGEGVLIEDYIMEVKLIERETTISLKDEG”, the protein production result was “not failed”. In the case of “SLDTEKDCIKAVAAKDGITVIKVKSSNKLLSWHFMRKLFEIFEFYQEPVDMVATSEVGVSLTIDNDKNLPDIVRALSDIGDVTVDKDMVIICIVGDMEWDNVGFEARIINALKGVPVRMISYGGSNYNVSVLVKAEDKKKALIALSNKLFNSRATKA”, the protein production result was “not failed”.

“SLKKIVESTTFPRTKQSITEDLKALGLKKGMTVLVHSSLSSIGWVNGGAVAVIQALIDVVTEEGTIVMPSQSVELSDPKEWGNPPVPEEWWDIIRESMPAYNSNYTPTTRGMGQIVELFRSYPEVKRSNHPNYSFVAWGKHKNKILNQHPLEFGLGEQSPLGKLYIRESYVLLLGADFDSSTCFHLAEYRIPYQKIINRGAPIIVEGKRVWKEYKELEFREELFQEVGQAFEAEHNMKVGKVGSANCRLFSLTEAVDFAEKWFINNDSKNIKK”: the protein production result is listed as “not failed”. With “SLMAGSFCWRMLGLVSKVGNRARCFSSVAASEEELLDFSGSELQFNSCSLHLSLHPFFNFLLGIHSCFVCKESKTDVKRCVVTQCGKFYHEACVKKYPLTVFESRGFRCPLHSCVSCHASNPSNPRPSKGKMMRCVRCPVAYHSGDACLAAGCSVIASNSIICTAHFTARKGKRHHAHVNVSWCFVCSKGGSLLCCESCPAAFHPDCLNIEMPDGSWFCNDCRAGKKLHFQDIIWVKLGNYRWWPAEVCHPKNVPPNIQKMKHEIGEFPVFFFGSKDYYWTHQARVFPYMEGDRGSRYQGVRGIGRVFKNALQEAEARFREIKLQREARETQESERKPPPYKHIKVNKPYGKVQIYTADISEIPKCNCKPTDENPCGFDSECLNRMLMFECHPQVCPAGEFCQNQCFTKRQYPETKIIKTDGKGWGLVAKRDIRKGEFVNEYVGELIDEEECMARIKHAHENDITHFYMLTIDKDRIIDAGPKGNYSRFMNHSCQPNCETLKWTVNGDTRVGLFAVCDIPAGTELTFNYNLDCLGNEKTVCRCGASNCSGFLGDRPKTSTTLSSEEKGKKTKKKTRRRRAKGEGKRQSEDECFRCGDGGQLVLCDRKFCTKAYHLSCLGLGKRPFGKWECPWHHCDVCGKPSTSFCHLCPNSFCKEHQDGTAFSCTPDGRSYCCEHDLGAASVRSTKTEKPPPEPGKPKGKRRRRRGWRRVTEGK”, the protein production entry is “not failed”.

For the sequence “SLPIASTATQMGSNKTRIFARQPAKAPPPLAWLSRPRDPRATAIAAAGQQSSRRVSKRELESHGSATDAWTAIHGVVYDITAYFRFHPGGAEILFIEAAGKDSTAVFDEMHPWVNVAWLLKDYRIGLYAPESEDDGGDDDDDDRTMTSPE”, the protein production result is listed as “not failed”.
